Measured values from article PMC3639176, “HnRNP A1/A2 and SF2/ASF Regulate Alternative Splicing of Interferon Regulatory Factor-3 and Affect Immunomodulatory Functions in Human Non-Small Cell Lung Cancer Cells”.

How the values were obtained:
GST-hnRNP A1 = GST-hnRNP A1 (UniProt P09651 1-372); experiment: EMSA; 2 ug tRNA competitor; LightShift Chemiluminescent EMSA kit; 20 fmol biotinylated RNA, 50 ng protein (20 ng in Fig. 3 legend), 2 ug tRNA, 20 ul, 20 min, room temperature; 6% native PAGE; buffer, salt and pH not stated; conditions: protein: recombinant; label: 3' biotin
GST-SF2/ASF = GST-SF2/ASF (UniProt Q07955 1-248); experiment: as above; conditions: protein: recombinant; label: 3' biotin
Chain of GST-SF2/ASF (Q07955 whole entry): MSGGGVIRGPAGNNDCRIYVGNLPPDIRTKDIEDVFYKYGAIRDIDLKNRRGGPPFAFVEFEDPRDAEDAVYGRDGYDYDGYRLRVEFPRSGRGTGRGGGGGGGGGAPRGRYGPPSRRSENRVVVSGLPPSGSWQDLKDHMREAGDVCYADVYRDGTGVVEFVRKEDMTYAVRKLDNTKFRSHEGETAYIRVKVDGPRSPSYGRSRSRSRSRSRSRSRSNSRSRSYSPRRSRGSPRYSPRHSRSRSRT

Chain of GST-hnRNP A1 (P09651 whole entry): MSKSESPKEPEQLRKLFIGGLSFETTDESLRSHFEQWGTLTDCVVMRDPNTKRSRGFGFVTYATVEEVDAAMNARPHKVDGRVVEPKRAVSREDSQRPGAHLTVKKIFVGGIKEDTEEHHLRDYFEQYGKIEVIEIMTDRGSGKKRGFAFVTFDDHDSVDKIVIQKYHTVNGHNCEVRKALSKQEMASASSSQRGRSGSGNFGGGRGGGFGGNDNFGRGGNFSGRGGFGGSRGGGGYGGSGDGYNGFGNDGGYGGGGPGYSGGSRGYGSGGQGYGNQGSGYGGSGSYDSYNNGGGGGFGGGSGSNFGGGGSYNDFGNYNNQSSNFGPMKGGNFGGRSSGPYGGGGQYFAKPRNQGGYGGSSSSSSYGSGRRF

| Binder | binding result (GST-hnRNP A1) | binding result (GST-SF2/ASF) |
| --- | --- | --- |
| UGAAAUAACUAGGGAAAGAGGAUG (ssRNA) [wt-A1] | binds |  |
| ACGCUGGGGAAGGAUGUGCCAUGGAUAUGGGAAGGAACCCUAG (ssRNA) [wt-SF2] |  | binds |
